In patent US20260137799A1, “ANTI-MUC1* ANTIBODY DRUG COMPLEXES AND USES THEREOF” (Minerva Biotechnologies Corporation, priority 2023, published 2026):
Numbering of substitutions follows the chain as printed.

B1: 18G12: anti-MUC1* monoclonal antibody that bound to the PSMGFR peptide (antibody, V domains shown)
VH: QVQLVQSGAEVKKPGASVKVSCKASGYTFTGYFLYWVRQAPGQGLEWIGGINPDNGGIDFNEKFRNRATLTVDKSSSTAYMELSSLRSEDTAVYYCTLLIGNYWGQGTLVTVSS
VL: DVVMTQTPSSLSVTPGQPASISCKSSQSLLHSDGKTYLIWLQQKPGQSPQRLIYLVSKLDSGVPDRFSGSGSGTDFTLKISRVEAEDVGVYYCCQGTHFPWTFGQGTKVEIK
B2: 28F9: anti-MUC1* monoclonal antibody that bound to the PSMGFR peptide (antibody, V domains shown)
VH: B1 VH with N52H, D54S, G57D, I58T, R65K, K74I, E89D, T97A, L98R, N102V
VL: B1 VL with T7S, S9L, P15L, K44R, Q50R, Y92F
modifications: humanized form
B3: 3C2B1-deruxtecan (antibody, V domains shown)
VH: EVMLVESGGGLVKPGGSLKLSCAASGITFSTYTMSWVRQTPEKRLEWVATISTGGDKTYYSDSVKGRFTISRDNAKNNLYLQMSSLRSEDTALYYCARGTTAMYYYAMDYWGQGTSVTVSS
VL: DIVLTQSPASLAVSLGQRATISCRASKSISTSDYNYIHWYQQKPGQPPKLLIYLASNLESGVPARFSGSGSGTDFTLNIHPVEEEDAATYYCQHSRELPLTFGAGTKLELK
modifications: deruxtecan (MC-GGFG-AM-DXd) on reduced cysteine thiols of the antibody, sites not stated; deruxtecan (MC-GGFG-AM-DXd) on reduced cysteine thiols of the antibody, sites not stated; average DAR 9.2

What was measured:
[1] = target: PSMGFR C-10 peptide (SEQ ID NO: 3) (Homo sapiens, UniProt P15941); experiment: ELISA binding to PSMGFR C-10 peptide; details: ELISA
Source text: Cancer selective anti-MUC1* antibodies bind to a membrane proximal conformational epitope within the MUC1* extracellular domain, as described in WO 2020/146902.
The 3C2B1 epitope was mapped more precisely with additional PSMGFR peptide variants (FIGS. 2A, 2B).

[2] = test system: MUC1 after cleavage by MMP9; experiment: Binding to MUC1-expressing cells after MMP9 cleavage; assay type: cell-based
Experimental: The binding strength of anti-MUC1* antibodies is evaluated by determining their ability to displace NMF7-AB (a MUC1* ligand) from MUC1* immobilized on the plastic surface of a 96-well plate. Because the cancer-selective MUC1* epitope is a conformational epitope, cancer-selective anti-MUC1* antibodies should not recognize MUC1* on a western blot, where the epitope is linearized. MMP9 is a protease that cleaves MUC1 to generate MUC1*. MMP9 is a predictor of poor prognosis for breast cancers. Some cancer-selective anti-MUC1* antibodies, particularly breast cancer selective antibodies, should bind to cells engineered to express MUC1 after they are contacted with MMP9 to convert the MUC1 to MUC1*.

[3] = test system: T47D; experiment: xCELLigence impedance cytotoxicity, T47D; assay type: cell-based, human; details: Example 9 (FIGS. 35-36); average over batches for DXd ADCs; read-out: IC50 for killing of breast cancer T47D-wt cells
Experimental: (§1) An xCELLigence RTCA MP Instrument (Agilent) was used to assess real-time killing of target cancer cells). In the xCELLigence system, target cancer cells, which are adherent, are plated onto electrode array 96-well plates. Adherent cells insulate the electrode and increase the impedance. The number of adherent cancer cells is directly proportional to impedance. […] Therefore, increasing impedance reflects the growth of the cancer cells and decreasing impedance reflects the killing of the cancer cells.
(§2) Target Cancer cells (Table 9) were seeded onto a multi-electrode well plate at a density of 5000 cells/well (100 μL of a 50,000 cells/mL stock) and incubated for 24 hr in a 37° C./5% CO2 incubator. ADCs were prepared as a 2× solution in corresponding growth media and 100 μL of each concentration was added to target cells. As a positive control (100% cell killing) cells were treated with either 1% triton or 1 μM Taxol instead of ADC. After 40-120 hours incubation in a 37° C./5% CO2 incubator cell killing was assessed. In this assay, impedance is measured in real-time. When the adherent cancer cells are killed and come off the electrode surface, impedance (insulation) decreases.

[4] = test system: CFPAC1-wt pancreatic cancer cell line; experiment: xCELLigence impedance cytotoxicity, CFPAC1; assay type: cell-based, human; details: Example 9 (FIGS. 35-36); read-out: IC50, CFPAC1-wt pancreatic cancer cells
Experimental: as §1, §2
(§3) To directly compare the C2 and 3C2B1 anti-MUC1* antibodies as ADC targeting domains, a panel of MUC1* positive cancer cell lines representing different cancer types were treated with C2-deruxtecan versus 3C2B1-deruxtecan (FIG. 35) or C2-MC-VA-PAB-exatecan versus 3C2B1-MC-VA-PAB-exatecan (FIG. 36). In some cases, the cancer cells were engineered to express high levels of MUC1*45.

[5] = test system: HPAF-II; experiment: xCELLigence impedance cytotoxicity, HPAF-II; assay type: cell-based, human; details: Example 9 (FIG. 35); average; listed as 3C2B1-MC-GGFG-AM-DXd; read-out: IC50 for killing of HPAFII-wt pancreatic cancer cells
Experimental: as §1, §2

[6] = test system: HPAF-II MUC1*; experiment: xCELLigence impedance cytotoxicity, HPAF-II MUC1*; assay type: cell-based, human; details: Example 9 (FIG. 35); average; read-out: IC50, HPAFII cells engineered to express MUC1*45
Experimental: as §1, §2

[7] = test system: H1975 lung cancer cells (H1975-wt); experiment: Antibody internalization (pHrodo Deep Red), H1975-wt; assay type: cell-based, human; details: H1975 cells
Experimental: (§4) Antibodies C2 and 3C2B1 were tested for their ability to be internalized by H1975 lung cancer cells (H1975-wt) and H1975 cells that were engineered to express high levels of a recombinant MUC1* polypeptide with a 45 amino acid extracellular domain (H1975-MUC1*45). In contrast to the T47D breast cancer cells, H1975-wt cells internalized 3C2B1 faster than they internalized C2 (FIGS. 4A1-4A28, 4C1-4C28 and 4E). Two (2) hours post incubation with H1975-wt cells, […] the cells had internalized C2. […] Similar to the T47D cells, MUC1*45 expression increased the internalization rate of C2 and decreased the internalization rate of 3C2B1 (FIGS. 4B1-4B28, 4D1-4D28 and 4E).
(§5) Antibodies C2 and 3C2B1 were coupled to a pH sensitive fluorophore using the pHrodo Deep Red TFP Ester kit (Thermo cat #P35356), according to manufacturer instructions. Cancer cells were seeded at ˜50,000 cells/well onto μ-Slide 8-well tissue culture-treated, chambered coverslip wells (Ibidi 80806) in their recommended media with 10% FBS. Cells were cultured for 48 hours. Slides were transferred into microscope chamber (37° C.—5% CO2) and equilibrated for ˜30 minutes. The pHrodo Deep Red coupled antibody was then diluted to a concentration of 200 to 300 μg/mL into pre-warmed media supplemented with 10% FBS. Media was removed from the chamber slides and the diluted antibodies were separately added. Fluorescent (655 nm) and phase contrast images at were collected every 10 min for 12h or 16 h with a Leica Thunder Live Cell 3D microscope.
(§6) Internalization of the fluorescently labeled antibodies was quantified as follows. Images were imported into ImageJ. The selection tool was used to draw a region of interest (ROI) on the image. The integrated pixel density (mean gray-scale value×area) was then measured by the ImageJ software. Positively-stained cells were manually counted and the integrated pixel density was divided by the number of positive cells to yield “Pixel Intensity per positive cell”.

[8] = target: MUC1*45 (UniProt P15941 1110-1255); experiment: cell-based or functional assay
[9] = test system: H1975-MUC1*45 cells; experiment: Antibody internalization (pHrodo Deep Red), H1975-MUC1*45; assay type: cell-based, human; details: H1975-MUC1*45 vs H1975-wt
Experimental: as §4, §5, §6

[10] = test system: H2110-wt lung cancer cell line; experiment: xCELLigence impedance cytotoxicity, H2110; assay type: cell-based, human; details: Example 9 (FIGS. 35-36); read-out: IC50, lung cancer H2110-wt cells
Experimental: as §1, §2, §3

MUC1 after cleavage by MMP9, sequence (P15941 1120-1255 limits assumed): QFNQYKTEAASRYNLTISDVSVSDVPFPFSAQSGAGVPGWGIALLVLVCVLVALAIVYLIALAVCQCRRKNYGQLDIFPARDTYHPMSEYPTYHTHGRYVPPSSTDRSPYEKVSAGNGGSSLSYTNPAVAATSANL
PSMGFR C-10 peptide (SEQ ID NO: 3), sequence (P15941 1110-1144 limits assumed): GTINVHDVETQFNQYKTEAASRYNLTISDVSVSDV

Molecule	Does not bind C-10 [1]	Recognizes MUC1 after cleavage by MMP9 [2]	IC50 [3] [nM]	IC50 [4] [nM]	IC50 [5] [nM]	IC50 [6] [nM]	internalization rate of the ADC compared to antibody alone [7]	IC50, killing of H1975 lung cancer cells engineered to express MUC1*45 (xCELLigence) [8] [nM]	IC50, killing of T47D breast cancer cells engineered to express more MUC1*45 (xCELLigence) [8] [nM]	effect of MUC1*45 expression on internalization rate [9]	IC50 [10] [nM]
B1	0	0									
B2	0	0									
B3			61	34	> 303	160	about the same rate as the 3C2B1 antibody alone	343	48	inhibited	90
